Test results reported in US11702469B2, “Recombinant EGFL7, EGFL7 antibodies, and uses thereof” (Ohio State Innovation Foundation, priority 2017, dated 2023).

System: THP-1 cells
Test: Apoptosis (AnnexinV+ FACS), THP-1
Type: cell-based, human
Details: anti-EGFL7 treatment
Experimental: FIG. 24A-24G. EGFL7 prevents activation of NOTCH signaling in AML cells. (FIG. 24A) Overview of experiments using DLL4-FC and IgG-FC control coated plates to induce NOTCH activation. (FIG. 24B) THP-1 cells were pre-treated with 10 μM γ-secretase inhibitor (AVA), 100 μg/ml anti-EGFL7 antibody or 0.25 μM rEGFL7 for 30 min, then transferred to IgG-Fc or DLL4-Fc coated plates. After 4 h of incubation total RNA from THP-1 cells was extracted for qRT-PCR analysis of HES1 with β-ACTIN as internal control. ^###P<0.001 DLL4-FC vs IgG-FC; ***P<0.001 DLL4+AVA, DLL4+rEGFL7, and DLL4+anti-EGFL7 vs DLL4-FC. […] THP-1 cells were treated with the indicated concentration of anti-EGFL7 (@E7) then assessed for apoptosis using (FIG. 24D) AnnexinV+ staining and FACS; *P<0.05 (FIG. 24E) Immuno-blotting for PARP1 and Casp3 cleavage. (FIG. 24F) Cell differentiation was assessed by CD11B and CD14 staining 96-hours post anti-EGFL7 treatments; *P<0.05. (FIG. 24G) To determine whether activation of NOTCH by DLL4-Fc could be accentuated by anti-EGFL7 treatment, THP-1 cells were first treated with anti-EGFL7 (100 μg/ml) and then cultured on DLL4-FC or IgG-Fc coated plates and then assessed for apoptosis using AnnexinV+ staining and FACS. *P<0.05 DLL4-Fc and anti-EGFL7; vs DLL4-FC+anti-EGFL7. […]

B1: Parsatuzumab: Anti-human EGFL7 therapeutic antibody (Parsatuzumab) obtained from Creative Biolabs; blocking monoclonal antibody (antibody, chains of the INN, looked up, V domains shown)
VH: EVQLVESGGGLVQPGGSLRLSCAASGYTFIDYYMNWVRQAPGKGLEWVGDINLDNSGTHYNQKFKGRFTISRDKSKNTAYLQMNSLRAEDTAVYYCAREGVYHDYDDYAMDYWGQGTLVTVSS
VL: DIQMTQSPSSLSASVGDRVTITCRTSQSLVHINAITYLHWYQQKPGKAPKLLIYRVSNRFSGVPSRFSGSGSGTDFTLTISSLQPEDFATYYCGQSTHVPLTFGQGTKVEIK
- AnnexinV+ apoptotic cells: increase in AnnexinV+
